The supplement of paper PMC11246515
± gives the standard deviation of the averaged measurements.

Assay: total protein half-life in vivo (active degradation + dilution); higher = more stable protein
[1] = E. coli NCM3722 delta-clpP delta-lon delta-hslV, growth: N-lim chemostat, doubling time 6 h
[2] = E. coli NCM3722 delta-clpP, growth: N-lim chemostat, doubling time 6 h
[3] = E. coli NCM3722 delta-hslV, growth: N-lim chemostat, doubling time 6 h
[4] = E. coli NCM3722 delta-lon, growth: N-lim chemostat, doubling time 6 h
[5] = E. coli NCM3722 delta-smpB, growth: N-lim chemostat, doubling time 6 h
[6] = wild type E. coli NCM3722, growth: C-lim chemostat, doubling time 3 h
[7] = wild type E. coli NCM3722, growth: C-lim chemostat, doubling time 6 h
[8] = wild type E. coli NCM3722, growth: C-lim chemostat, doubling time 12 h
[9] = wild type E. coli NCM3722, growth: N-lim chemostat, doubling time 6 h
[10] = wild type E. coli NCM3722, growth: N-lim chemostat, doubling time 12 h
[11] = wild type E. coli NCM3722, growth: P-lim chemostat, doubling time 6 h
[12] = wild type E. coli NCM3722, growth: P-lim chemostat, doubling time 12 h

## MDHLPIFCQLRDRDCLIVGGGDVAERKARLLLDAGARLTVNALAFIPQFTAWADAGMLTLVEGPFDESLLDTCWLAIAATDDDALNQRVSEAAEARRIFCNVVDAPKAASFIMPSIIDRSPLMVAVSSGGTSPVLARLLREKLESLLPLHLGQVAKYAGQLRGRVKQQFATMGERRRFWEKLFVNDRLAQSLANNDQKAITETTEQLINEPLDHRGEVVLVGAGPGDAGLLTLKGLQQIQQADVVVYDRLVSDDIMNLVRRDADRVFVGKRAGYHCVPQEEINQILLREAQKGKRVVRLKGGDPFIFGRGGEELETLCNAGIPFSVVPGITAASGCSAYSGIPLTHRDYAQSVRLITGHLKTGGELDWENLAAEKQTLVFYMGLNQAATIQQKLIEHGMPGEMPVAIVENGTAVTQRVIDGTLTQLGELAQQMNSPSLIIIGRVVGLRDKLNWFSNH [P0AEA8]
[1]
  total protein half-life in vivo: 5.19 ± 0.22 h
[2]
  total protein half-life in vivo: 4.33 ± 0.24 h
[3]
  total protein half-life in vivo: 4.17 ± 0.56 h
[4]
  total protein half-life in vivo: 5.23 ± 0.94 h
[5]
  total protein half-life in vivo: 4.7 ± 0.87 h
[6]
  total protein half-life in vivo: 3.42 ± 0.48 h
[7]
  total protein half-life in vivo: 5.47 ± 0.28 h
[8]
  total protein half-life in vivo: 10.12 ± 0.019 h
[9]
  total protein half-life in vivo: 4.39 ± 0.22 h
[10]
  total protein half-life in vivo: 7.57 ± 0.15 h
[11]
  total protein half-life in vivo: 6.43 ± 1.1 h
[12]
  total protein half-life in vivo: 13.6 ± 2.6 h

## MDIIFYHPTFDTQWWIEALRKAIPQARVRAWKSGDNDSADYALVWHPPVEMLAGRDLKAVFALGAGVDSILSKLQAHPEMLNPSVPLFRLEDTGMGEQMQEYAVSQVLHWFRRFDDYRIQQNSSHWQPLPEYHREDFTIGILGAGVLGSKVAQSLQTWRFPLRCWSRTRKSWPGVQSFAGREELSAFLSQCRVLINLLPNTPETVGIINQQLLEKLPDGAYLLNLARGVHVVEDDLLAALDSGKVKGAMLDVFNREPLPPESPLWQHPRVTITPHVAAITRPAEAVEYISRTIAQLEKGERVCGQVDRARGY
[1]
  total protein half-life in vivo: 5.02 ± 0.051 h
[2]
  total protein half-life in vivo: 4.58 ± 0.51 h
[3]
  total protein half-life in vivo: 5.71 ± 1.3 h
[4]
  total protein half-life in vivo: 4.67 ± 0.34 h
[5]
  total protein half-life in vivo: 4.43 ± 0.24 h
[6]
  total protein half-life in vivo: 2.69 ± 0.43 h
[7]
  total protein half-life in vivo: 5.64 ± 0.55 h
[8]
  total protein half-life in vivo: 10.3 ± 1.4 h
[9]
  total protein half-life in vivo: 4.45 ± 0.25 h
[10]
  total protein half-life in vivo: 7.3 ± 0.49 h
[11]
  total protein half-life in vivo: 5.821 ± 0.027 h
[12]
  total protein half-life in vivo: 11 ± 0.45 h

## MDIIGGQHLRQMWDDLADVYGHKTALICESSGGVVNRYSYLELNQEINRTANLFYTLGIRKGDKVALHLDNCPEFIFCWFGLAKIGAIMVPINARLLCEESAWILQNSQACLLVTSAQFYPMYQQIQQEDATQLRHICLTDVALPADDGVSSFTQLKNQQPATLCYAPPLSTDDTAEILFTSGTTSRPKGVVITHYNLRFAGYYSAWQCALRDDDVYLTVMPAFHIDCQCTAAMAAFSAGATFVLVEKYSARAFWGQVQKYRATVTECIPMMIRTLMVQPPSANDQQHRLREVMFYLNLSEQEKDAFCERFGVRLLTSYGMTETIVGIIGDRPGDKRRWPSIGRVGFCYEAEIRDDHNRPLPAGEIGEICIKGIPGKTIFKEYFLNPQATAKVLEADGWLHTGDTGYRDEEDFFYFVDRRCNMIKRGGENVSCVELENIIAAHPKIQDIVVVGIKDSIRDEAIKAFVVLNEGETLSEEEFFRFCEQNMAKFKVPSYLEIRKDLPRNCSGKIIRKNLK
[1]
  total protein half-life in vivo: 5.31 h
[3]
  total protein half-life in vivo: 6.57 h
[5]
  total protein half-life in vivo: 3.61 ± 0.13 h
[8]
  total protein half-life in vivo: 11.3 h
[9]
  total protein half-life in vivo: 4.98 h
[10]
  total protein half-life in vivo: 7.9 h
[12]
  total protein half-life in vivo: 10.7 ± 0.12 h

## MDIISVALKRHSTKAFDASKKLTPEQAEQIKTLLQYSPSSTNSQPWHFIVASTEEGKARVAKSAAGNYVFNERKMLDASHVVVFCAKTAMDDVWLKLVVDQEDADGRFATPEAKAANDKGRKFFADMHRKDLHDDAEWMAKQVYLNVGNFLLGVAALGLDAVPIEGFDAAILDAEFGLKEKGYTSLVVVPVGHHSVEDFNATLPKSRLPQNITLTEV
[1]
  total protein half-life in vivo: 2.56 ± 0.26 h
[2]
  total protein half-life in vivo: 1.66 ± 0.42 h
[3]
  total protein half-life in vivo: 1.405 ± 0.01 h
[4]
  total protein half-life in vivo: 2.01 ± 0.14 h
[5]
  total protein half-life in vivo: 1.62 ± 0.067 h
[6]
  total protein half-life in vivo: 2.72 ± 0.21 h
[7]
  total protein half-life in vivo: 3.38 ± 0.86 h
[8]
  total protein half-life in vivo: 5.94 ± 0.37 h
[9]
  total protein half-life in vivo: 1.58 ± 0.097 h
[10]
  total protein half-life in vivo: 2.17 ± 0.057 h
[11]
  total protein half-life in vivo: 4.45 ± 0.91 h
[12]
  total protein half-life in vivo: 7.04 ± 0.45 h

## MDINNKARIHWACRRGMRELDISIMPFFEHEYDSLSDDEKRIFIRLLECDDPDLFNWLMNHGKPADAELEMMVRLIQTRNRERGPVAI
[1]
  total protein half-life in vivo: 5.79 ± 0.24 h
[6]
  total protein half-life in vivo: 3 h
[8]
  total protein half-life in vivo: 6.71 h
[11]
  total protein half-life in vivo: 4.97 h
[12]
  total protein half-life in vivo: 11.3 ± 2.2 h

## MDIPRIFTISESEHRIHNPFTEEKYATLGRVLRMKPGTRILDLGSGSGEMLCTWARDHGITGTGIDMSSLFTAQAKRRAEELGVSERVHFIHNDAAGYVANEKCDVAACVGATWIAGGFAGAEELLAQSLKPGGIMLIGEPYWRQLPATEEIAQACGVSSTSDFLTLPGLVGAFDDLGYDVVEMVLADQEGWDRYEAAKWLTMRRWLEANPDDDFAAEVRAELNIAPKRYVTYARECFGWGVFALIAR
[1]
  total protein half-life in vivo: 5.64 ± 0.16 h
[3]
  total protein half-life in vivo: 5.71 ± 1.8 h
[5]
  total protein half-life in vivo: 3.54 ± 0.12 h
[6]
  total protein half-life in vivo: 2.7 ± 0.65 h
[7]
  total protein half-life in vivo: 4.93 ± 0.38 h
[8]
  total protein half-life in vivo: 9.89 ± 1.2 h
[9]
  total protein half-life in vivo: 3.97 h
[10]
  total protein half-life in vivo: 8.49 h
[11]
  total protein half-life in vivo: 7.11 h
[12]
  total protein half-life in vivo: 12.41 ± 0.083 h
